Measured values published in the RNAGym collection of RNA variant scans (doi:10.7554/elife.80360).

B1: HDV Ribozyme (parent)
chain: GGCCGGCAUGGUCCCAGCCUCCUCGCUGGCGCCGGCUGGGCAACAUUCCGAGGGGACCGUCCCCUCGGUAAUGGCGAAUGGGACCCA

Variants of: B1
Experiment: self-cleavage, relative activity (ratio to wild type); higher = more cleavage; co-transcriptional

Going from GGUCGGCAUGGUCCCAGCCUCCUCGCUGGCGCCGGCUGGGCAACAUUCCGAGGGGACCGUCCCCUCGGUAAUGGCGAAUGGCACCCA to GGUCGGCAUGGUCCCAGCCUCCUCGCGGGCGCCGGCUGGGCAACAUUCCGAGGGGACCGUCCCCUCGGUAAUGGCGAAUGGGACCCA, the self-cleavage rises from 0.0779 to 0.723.

Going from GGUCGGCAUGGUCCCAGCCUCCUCGCCGGCGCCGGCUGGGCAACAUUCCGAGGGGACCGUCCCCUCGGUAAUGGCGAAUGGGACCCA to GGUCGGCAUGGUCCCAGCCUCCUCGCUGGCGCCGGCUGGGCAACAUUCCGAGGGGACCGUCCCCACGGUAAUGGCGAAUGGGACCCA, the self-cleavage rises from 0.262 to 0.872.

First: GGUCGGCAUGGUCCCAGCCUCCUCGCUGGCGCCGGCUGGGCAACAUUCCGAGGGGACCGUCCCCCCGGUAAUGGCGAAUGGGACCCA
Second: GGUCGGCAUGGUCCCAGCCUCCUCGCUGGCGCCGGCUGGGCAACAUUCCGAGGGGACCGUCCCCUCGGUAAUGGCGAAUGCGACCCA
The self-cleavage of the first is higher: 0.78 for the first, 0.0563 for the second.

Going from GGUCGGCAUGGUCCCAGCCUCCUCGCUGGCGCCGGCUGGGCAACAUUCCGAGGGGACCGUCCCCUCGGUAAUGGCGAAUGUGACCCA to GGUCGGCAUGGUCCCAGCCUCCUCGCUGGCGCCGGCUGGUCAACAUUCCGAGGGGACCGUCCCCUCGGUAAUGGCGAAUGGGACCCA, the self-cleavage rises from 0.187 to 0.594.

First: GGUCGGCAUGGUCCCAGCCUCCUCGCUGGCGCCGGCUGGACAACAUUCCGAGGGGACCGUCCCCUCGGUAAUGGCGAAUGGGACCCA
Second: GGUCGGCAUGGACCCAGCCUCCUCGCUGGCGCCGGCUGGGCAACAUUCCGAGGGGACCGUCCCCUCGGUAAUGGCGAAUGGGACCCA
The self-cleavage of the first is higher: 0.857 for the first, 0.0817 for the second.

Going from GGUCGGCAUGGGCCCAGCCUCCUCGCUGGCGCCGGCUGGGCAACAUUCCGAGGGGACCGUCCCCUCGGUAAUGGCGAAUGGGACCCA to GGCAGGCAUGGUCCCAGCCUCCUCGCUGGCGCCGGCUGGGCUACAUUCCGAGGGGACCGUCCCCUCGGUAAUGGCGAAUGGGACCCA, the self-cleavage falls from 0.429 to 0.0997.

Compared with GGCAGGCAUGGUCCCAGCCUCCUCGCUGGCGCCGGCUGGGCCACAUUCCGAGGGGACCGUCCCCUCGGUAAUGGCGAAUGGGACCCA, GGUCGGCAUGGUCCCAGCCUCCUCGCUGGCGCCGGCUGGGCAACAUUCCGAGGGGACCGUCCCCUCGGUAAUGGCGAAUAGGACCCA is higher in self-cleavage: 0.0332 for the first, 0.175 for the second.

Going from GGUCGGCAUGGUCCCAGCCUCCUCGCUGGCGCCGGCUGGGCAACAUUCCGAGGGGACCGUCCCCUCGGUAAUGGCGAAUUGGACCCA to GGUCGGCAUGGUCCCAGCCUCCUCGCUGGCGCCGGCUGGGCAACAUUCCGAGGGGACCGUCCCCUCGGUAAUGGCGAAUCGGACCCA, the self-cleavage rises from 0.114 to 0.159.

GGUCGGCAUGGUCCCAGCCUCCUCGCUGGCGCCGGCUGGGCAACAUUCCGAGGGGACCGUCCCCUCGGAAAUGGCGAAUGGGACCCA and GGUCGGCAUGGUCCCAGCCUCCUCGCUGGCGCCGGCUGGGCAACAUUCCGAGGGGACCGUCCCCUCGAUAAUGGCGAAUGGGACCCA are the same in self-cleavage: 0.831 for the first, 0.831 for the second.

Going from GGUCGGCAUGGUCCCAGCCUCCUCGCUGGCGCCGGCUGGGCAACAUUCCGAGGGGACCGUCCCCUCGCUAAUGGCGAAUGGGACCCA to GGUCGGCAUGGUCCCAGCCUCCUCGCUGGCGCCGGCUGGGCAACAUUCCGAGGGGACCGUCCCCUCGUUAAUGGCGAAUGGGACCCA, the self-cleavage rises from 0.781 to 0.866.

Going from GGUCGGCAUGGUCCCAGCCUCCUCGCUGGCGCCGGCUGGGCAACAUUCCGAGGGAACCGUCCCCUCGGUAAUGGCGAAUGGGACCCA to GGUCGGCAUGGUCCCAGCCUCCUCGCUAGCGCCGGCUGGGCAACAUUCCGAGGGGACCGUCCCCUCGGUAAUGGCGAAUGGGACCCA, the self-cleavage falls from 0.763 to 0.0294.

First: GGUCGGCAUGGUCCCAGCCUCCUCGCUGGCGCCGGCUGGGCAACAUUCCGAGGCGACCGUCCCCUCGGUAAUGGCGAAUGGGACCCA
Second: GGUCGGCAUGGUCCCAGCCUCCUCGCUGGCGCCGGCUGGGCAACAUUCCGAGGAGACCGUCCCCUCGGUAAUGGCGAAUGGGACCCA
The self-cleavage of the first is higher: 0.636 for the first, 0.633 for the second.

First: GGUCGGCAUGGUCCCAGCCUCCUCGCUGGCGCCGGCUGGGCAACAUUCCGAUGGGACCGUCCCCUCGGUAAUGGCGAAUGGGACCCA
Second: GGUCGGCAUGGUCCCAGCCUCCUCGCUGGCGCCGGCUGGGCAACAUUCCGAAGGGACCGUCCCCUCGGUAAUGGCGAAUGGGACCCA
The self-cleavage of the first is lower: 0.723 for the first, 0.896 for the second.

Compared with GGUCGGCAUGGUCCCAGCCUCCUCGCUGGCGCCGGCUGGGCAACAUUCCAAGGGGACCGUCCCCUCGGUAAUGGCGAAUGGGACCCA, GGCAGGCAUGGUCCCUGCCUCCUCGCUGGCGCCGGCUGGGCAACAUUCCGAGGGGACCGUCCCCUCGGUAAUGGCGAAUGGGACCCA is lower in self-cleavage: 0.682 for the first, 0.0665 for the second.

Compared with GGUCGGCAUGGUCCCAGCCUCCUCGCUGGCGCCGGCUGGGCAACAUUCCGAGGGGACCGUCCCCUCGGUAAUGGCGAAUGGGACGCA, GGUCGGCAUGGUCCCAGCCUCCUCGCUGUCGCCGGCUGGGCAACAUUCCGAGGGGACCGUCCCCUCGGUAAUGGCGAAUGGGACCCA is lower in self-cleavage: 0.87 for the first, 0.0723 for the second.

First: GGUCGGCAUGGUCCCAGCCUCCUCGCUGGCGCCGGCUGGGCAACAUUCCGAGGGGACCGUCCCCUCGGUAAUCGCGAAUGGGACCCA
Second: GGUCAGCAUGGUCCCAGCCUCCUCGCUGGCGCCGGCUGGGCAACAUUCCGAGGGGACCGUCCCCUCGGUAAUGGCGAAUGGGACCCA
The self-cleavage of the first is higher: 0.304 for the first, 0.123 for the second.
